The values that follow come from paper PMC2831815.

Substrate in the series: Nc1ncnc2c1ncn2[C@@H]1O[C@H](COP(=O)(O)OP(=O)(O)OP(=O)(O)O)[C@@H](O)[C@H]1O
Put plainly: purified protein. The note with it: 10 mM MgCl2, pH 7.6, 37 °C, ATP 0.025-3.5 mM.

B1: TraK (Aeromonas veronii) (protein)
chain: MKNKAGFIGFLLFVFALCSVGSLYLGGYMLLKKSGVDMSALSIHTFFDVNRDLGGDPAFKKIIAWGWIGFAIPYAIFLFFVGVMLVGLMPKKVIYGDGRLATPMDLARSGFFPKKGDKHKQPPILIGKMFKGRFKNSYIYFYGQQFLILYAPTRSGKGVGIVIPNCVNYPESIVVLDIKLENFFLSAGYRKEQGQECFLFSPDGFADNLDAARRGEIKSHRFNPLDYVSRSPLQRESDLKKIAAILYPTSGGENDTWNESASSLWIGLALYLLDMEKVEPKTKVAVSQIIKISVPGSGDPLEKWMELTIKAKSDILGDDTKQYFRKFMSAADRTRASILVNFNNGVAVFSNPITAAATDSSDFDLRDLRKKKMSVYLGLSPNSLVTHAKLVNLFFSLLVNENTKELPENNPELKYQCLLILDEFTSMGRVEIIQKAVGFTAGYNIRFMFILQNKGQLEDDKMYGKEGAETFIENTGVELYYPPKSVNDTAKAISEKIGVRDEKVSSISRSSQSGKTSRSKSTSTEKRAVLLPDEIVSLRDHKNKGGNMAVREIILSDFCRPFIANKIVYFEEPIFMERVNYARKNPIEIPFLFNEDERKTFTCDSISLGSVMKKPDLDNHDQADKSE
Usually Km stands for the substrate concentration at which the rate is half of its maximum. In the case of B1, for the setting “Discussion prints 0.96 mM instead”, the Km came to 920 µM.

B2: TraE (Aeromonas veronii) (protein)
chain: MKQIKQTPLKKGRTEPVMRMYPDYQFHVSDNVVFTADKKALASIAIEGMPFESISDGVLESDFDSIKNFLVNMGKDGDVYLWTHLVKEKVSLDEEYHFKSDFLNRFSNQYTELFRGSNFFKSTYYLTFGIKYSNISEAIERLDEVIHQAKAVLGKYGAHVLTVDQNRVSGVADYLHLLLNKSHAEIPLSINPISSSIADSEWYFGYDSLELRNNEAEEKKFATNYVVKDFPMFTELGQWDFLLRLPYEFIITQSFIYEAPTKTLKEIDAQLNKMGSAGDAAENQQDELVLGKEVVTSGITLFGSYHCVLTVFGRTADEARKNGIKVSSEFVSAGKGFRFIRTNSAGAHCYFSHMPMNKIRPLATRRTITNLACTFSLHNYSHGKKRGNPIGDGTAIMPLKTVADGLYWFNTHYSEPGRDVRGQKIAGHAMILGATGAGKTTFEGAAAGFLQRFDPYMFVVDFNRSTELFVRAYGGSYFTLKEGEYTGLNPFQICDLDDELAPRLVQFLKSYVKTLAYDQSGKPCSDAQAEELAKAVDATMLLPREMRRLSTLLSRISDPELKIRLAKWCGAGQYAWAVDSPRNTFNPMDFKKVGFDTTVILEKTKDGVHPACEPLLAILFFYKSLMQREGQLMLSIIEEFWMPANFPLTQAMIKSALKAGRMKGEMMWLTSQSPEDAIYCEIFPALVQQTATKILLPNPDADLEGYKKIGLTVKEFDRLKKLGKESRTMLIKQSGSSCFAKMDLYGFDDFLPIISGSMEGITLCEKVRAELGTDNPDIWIPEFLKQLREE
Turning to B2, the Km came out at 550 µM.
